The source of these data is patent US20040180417.

Data set [1] concerns the target [proBACES]FG/V5, doubly tagged soluble form of mouse proBACE.
Data set [2] addresses T1, 20 aa synthetic peptide spanning the β-secretase cleavage site of βAPPSW.
T1 chain: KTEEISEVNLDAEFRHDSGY

Data set [3] concerns the target T2, PC cleavage site-spanning peptide of proBACE.
T2 chain: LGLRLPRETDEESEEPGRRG

B1: PACE4 (protein)
chain: QVRSDPQALYFNDPIWSNMWYLHCGDKNSRCRSEMNVQAAWKRGYTGKNVVVTILDDGIERNHPDLAPNYDSYASYDVNGNDYDPSPRYDASNENKHGTRCAGEVAASANNSYCIVGIAYNAKIGGIRMLDGDVTDVVEAKSLGIRPNYIDIYSASWGPDDDGKTVDGPGRLAKQAFEYGIKKGRQGLGSIFVWASGNGGREGDYCSCDGYTNSIYTISVSSATENGYKPWYLEECASTLATTYSSGAFYERKIVTTDLRQRCTDGHTGTSVSAPMVAGIIALALEANSQLTWRDVQHLLVKTSRPAHLKASDWKVNGAGHKVSHFYGFGLVDAEALVVEAKKWTAVPSQHMCVAASDKRPRSIPLVQVLRTTALTSACAEHSDQRVVYLEHVVVRTSISHPRRGDLQIYLVSPSGTKSQLLAKRLLDLSNEGFTNWEFMTVHCWGEKAEGQWTLEIQDLPSQVRNPEKQGKLKEWSLILYGTAEHPYHTFSAHQSRSRMLELSAPELEPPKAALSPSQVEVPEDEEDYTAQSTPGSANILQTSVCHPECGDKGCDGPNADQCLNCVHFSLGSVKTSRKCVSVCPLGYFGDTAARRCRRCHKGCETCSSRAATQCLSCRRGFYHHQEMNTCVTLCPAGFYADESQKNCLKCHPSCKKCVDEPEKCTVCKEGFSLARGSCIPDCEPGTYFDSELIRCGECHHTCGTCVGPGREECIHCAKNFHFHDWKCVPACGEGFYPEEMPGLPHKVCRRCDENCLSCAGSSRNCSRCKTGFTQLGTSCITNHTCSNADETFCEMVKSNRLCERKLFIQFCCRTCLLAG
Regarding B1, in data set [proBACES-R45A]FG/V5, the “in vitro processing of the R45A mutant of proBACES, Western blot” value is given as “none of the PCs tested could cleave this form”. Further, the “in vitro processing of proBACE into BACE, Western blot with FG or V5 antibodies” value (“in vitro processing of proBACE into BACE” below) in data set [1] is “which was superior to the abilities of PC5 and PACE4 to carry out this cleavage”.

B2: [proBACES]FG/V5, doubly tagged soluble form of mouse proBACE (protein)
chain: DYKDDDDKQGTHLGIRLPLRSGLAGPPLGLRLPRETDEESEEPGRRGSFVEMVDNLRGKSGQGYYVEMTRGQPLTKLNILVDTGSSNFAVGAAPHPFLHRYYQRQLSSTYRDLRKGVYVPYTQGKWEGELGTDLVSIPHGPNVTVRANIAAITESDKFFINGSNWEGILGLAYAEIARPDDSLEPFFDSLVKQTHIPNIFSLQLCGAGFPLNQTEALASVGGSMIIGGIDHSLYTGSLWYTPIRREWYYEVIIVRVEINGQDLKMDCKEYNYDKSIVDSGTTNLRLPKKVFEAAVKSIKAASSTEKFPDGFWLGEQLVCWQAGTTPWNIFPVISLYLMGEVTNQSFRITILPQQYLRPVEDVATSQDDCYKFAVSQSSTGTVMGAVIMEGFYVVFDRARKRIGFAVSACHVHDEFRTAAVEGPFVTADMEDCGYNIPQTDESTGKPIPNPLLGLDST
For B2, in data set [2], the “β-secretase activity of affinity-purified proBACE on the synthetic peptide substrate” value was “the resulting material had no detectable activity unless first pre-incubated with furin”.

B3: [BACES]V5, soluble mouse BACE ending at Thr454 followed by a V5 epitope (protein)
chain: THLGIRLPLRSGLAGPPLGLRLPRETDEESEEPGRRGSFVEMVDNLRGKSGQGYYVEMTRGQPLTKLNILVDTGSSNFAVGAAPHPFLHRYYQRQLSSTYRDLRKGVYVPYTQGKWEGELGTDLVSIPHGPNVTVRANIAAITESDKFFINGSNWEGILGLAYAEIARPDDSLEPFFDSLVKQTHIPNIFSLQLCGAGFPLNQTEALASVGGSMIIGGIDHSLYTGSLWYTPIRREWYYEVIIVRVEINGQDLKMDCKEYNYDKSIVDSGTTNLRLPKKVFEAAVKSIKAASSTEKFPDGFWLGEQLVCWQAGTTPWNIFPVISLYLMGEVTNQSFRITILPQQYLRPVEDVATSQDDCYKFAVSQSSTGTVMGAVIMEGFYVVFDRARKRIGFAVSACHVHDEFRTAAVEGPFVTADMEDCGYNIPQTDESTGKPIPNPLLGLDST
With B3, the “cleavage of the peptide spanning the N-terminal furin-consensus site” value in data set [3] was “no detectable cleavage of this peptide was observed by either crude or partially purified soluble BACE [BACES]V5 (not shown)”.

B4: rat PC7 (protein)
chain: SIHFNDPKYPQQWHLNNRRSPGRDINVTGVWERNVTGRGVTVVVVDDGVEHTVQDIAPNYSPEGSYDLNSNDPDPMPHPDEENGNHHGTRCAGEIAAVPNNSFCAVGVAYGSRIAGIRVLDGPLTDSMEAVAFNKHYQINDIYSCSWGPDDDGKTVDGPHQLGKAALQHGVMAGRQGFGSIFVVASGNGGQHNDNCNYDGYANSIYTVTIGAVDEEGRMPFYAEECASMLAVTFSGGDKMLRSIVTTDWDLQKGTGCTEGHTGTSAAAPLAAGMIALMLQVRPCLTWRDVQHIIVFTATQYEDHRADWLTNEAGFSHSHQHGFGLLNAWRLVNAAKIWTSVPYLASYVSPMLKENKAVPRSPHSLEVLWNVSRTDLEMSGLKTLEHVAVTVSITHPRRGSLELKLFCPSGMMSLIGAPRSMDSDPNGFNDWTFSTVRCWGERARGVYRLVIRDVGDEPLQVGILQQWQLTLYGSTWSPVDIKDRQSLLESAMSGKYLHDDFTLPCPPGLKIPEEDGYSITPNTLKT
On to B4, for which the “cleavage of the peptide spanning the N-terminal furin-consensus site, RP-HPLC and MALDI-TOF” value in data set [3] is “PC7 could barely cleave this sequence, even when a 10-fold excess (as assessed by pERTKR-MCA hydrolysis) of activity was employed”. In addition, the “in vitro processing of the R45A mutant of proBACES, Western blot” value in data set [proBACES-R45A]FG/V5 was “none of the PCs tested could cleave this form”. Also, the “in vitro processing of proBACE into BACE” value in data set [1] is “PC7 is barely, if at all, able to perform this reaction”.

B5: mouse PC5-A (protein)
chain: DYDLSHAQSTYFNDPKWPSMWYMHCSDNTHPCQSDMNIEGAWKRGYTGKNIVVTILDDGIERTHPDLMQNYDALASCDVNGNDLDPMPRYDASNENKHGTRCAGEVAATANNSHCTVGIAFNAKIGGVRMLDGDVTDMVEAKSVSYNPQHVHIYSASWGPDDDGKTVDGPAPLTRQAFENGVRMGRRGLGSVFVWASGNGGRSKDHCSCDGYTNSIYTISISSTAESGKKPWYLEECSSTLATTYSSGESYDKKIITTDLRQRCTDNHTGTSASAPMAAGIIALALEANPFLTWRDVQHVIVRTSRAGHLNANDWKTNAAGFKVSHLYGFGLMDAEAMVMEAEKWTTVPQQHVCVESTDRQIKTIRPNSAVRSIYKASGCSDNPNHHVNYLEHVVVRITITHPRRGDLAIYLTSPSGTRSQLLANRLFDHSMEGFKNWEFMTIHCWGERAAGDWVLEVYDTPSQLRNFKTPGKLKEWSLVLYGTSVQPYSPTNEFPKVERFRYSRVEDPTDDYGAEDYAGPCDPECSEVGCDGPGPDHCSDCLHYYYKLKNNTRICVSSCPPGHYHADKKRCRKCAPNCESCFGSHGNQCLSCKYGYFLNEETSSCVTQCPDGSYEDIKKNVCGKCSENCKACIGFHNCTECKGGLSLQGSRCSVTCEDGQFFNGHDCQPCHRFCATCSGAGADGCINCTEGYVMEEGRCVQSCSVSYYLDHSSEGGYKSCKRCDNSCLTCNGPGFKNCSSCPSGYLLDLGTCQMGAICKDATEESWAEGGFCMLVKKNNLCQRKVLQQLCCKTCTFQG
As for B5, the “cleavage of the peptide spanning the N-terminal furin-consensus site, RP-HPLC and MALDI-TOF” value in data set [3] is “The best processing rates were observed with furin and PC5 (not shown)”. Further, the “in vitro processing of the R45A mutant of proBACES, Western blot” value in data set [proBACES-R45A]FG/V5 is listed as “none of the PCs tested could cleave this form”. For the same protein, in data set [1], the “in vitro processing of proBACE into BACE” value is “which was superior to the abilities of PC5 and PACE4 to carry out this cleavage”.
